Test results as given in publication PMC5126634.

Assays:
[1] = tested on: His51; test: kinetics; settings: 37 °C, multicomponent buffer: 100 mM acetate, 100 mM MES, 100 mM HEPES, 100 mM CHES, 100 mM CAPS
[2] = target: His51 (UniProt position 1526, FHTMWHVTRGA); test: kinetics; settings: 37 °C, multicomponent buffer: 100 mM acetate, 100 mM MES, 100 mM HEPES, 100 mM CHES, 100 mM CAPS
[3] = enzyme-substrate complex (pKes1, from kcat)
[4] = free enzyme (pKe1, from kcat/Km)

Row | Substance | pKa [1, 3] | pKa [1, 4] | pKa [2, 3] | pKa [2, 4]
1 | Dengue virus 2 NS2B-NS3 protease, unlinked complex (NS2BH + NS3pro) (Dengue virus 2 (DENV2)) | 8.2 ± 0.1 | 8.7 ± 0.7 |  | 
2 | Dengue virus 2 NS2B-NS3 protease, glycine-linked (NS2BH-gly-NS3pro) (Dengue virus 2 (DENV2)) |  |  | 8.6 ± 0.4 | 8.1 ± 0.3
